Measured values from patent US8124742.

B1: E1/M2 (Fab, V domains shown)
VH: EVQLLESGGGLVKPGGSLRLSCAASGFTFSSYSMHWVRQAPGKGLEWVSSISNSNTYIYYADAVKGRFTISRDNAKNSLYLQMNSLRAEDTAVYYCARDSRYSNFLRWVRSDGMDVWGQGTTVIVSS
VL: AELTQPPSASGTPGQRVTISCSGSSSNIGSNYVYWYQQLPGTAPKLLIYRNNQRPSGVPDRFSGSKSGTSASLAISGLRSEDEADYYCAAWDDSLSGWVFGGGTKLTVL
notes: Fab on M13 phage; heavy chain E1 with λ light chain M2; also called E01/M02
B2: E1/M3 (Fab, V domains shown)
VH: EVQLLESGGGLVKPGGSLRLSCAASGFTFSSYSMHWVRQAPGKGLEWVSSISNSNTYIYYADAVKGRFTISRDNAKNSLYLQMNSLRAEDTAVYYCARDSRYSNFLRWVRSDGMDVWGQGTTVIVSS
VL: AELTQPPSASGTPGQRVTISCSGSSSNIGSNYVYWYQQLPGTAPKLLIYRNNQRPSGVPDRFSGSKSGTSASLAISGLRSEAEADYYCAAWDDSLSAVVFGGGTKLTVLL
notes: used both as Fab on M13 phage and as soluble γ1λ Fab; also called E01/M03; anti-epD3
B3: E1/L4 (Fab, V domains shown)
VH: EVQLLESGGGLVKPGGSLRLSCAASGFTFSSYSMHWVRQAPGKGLEWVSSISNSNTYIYYADAVKGRFTISRDNAKNSLYLQMNSLRAEDTAVYYCARDSRYSNFLRWVRSDGMDVWGQGTTVIVSS
VL: AELTQPPSASGTPGQRVSISCSGSSSNIGSNTVNWYQQLPGTAPKLLISTNNQGPSGVPDRFSGSKSGTSSSLAISGLRSEAEDDYYCAAWDDTLNGVVFGGGTKLTVL
notes: Fab on M13 phage; also called E1 with L4
B4: E1/L3 (Fab, V domains shown)
VH: EVQLLESGGGLVKPGGSLRLSCAASGFTFSSYSMHWVRQAPGKGLEWVSSISNSNTYIYYADAVKGRFTISRDNAKNSLYLQMNSLRAEDTAVYYCARDSRYSNFLRWVRSDGMDVWGQGTTVIVSS
VL: AELTQPPSASGTPGQRVTISCSGSSSNIGNNHVSWYQQLPGMAPKLLIYSNGQRPSGVPDRFSGSKSGTSASLAISGLQSEDEADYYCAAWHDSLYGPVFGGGTKLTVL
notes: Fab on M13 phage; also called E1 with L3
B5: SH36 (Fab, V domains shown)
VH: EVQLLESGGGVVQPGRSLRLSCEASKFTLYNYGMHWVRQAPGKGLEWVAFIWFDGSNKYYEDSVKGRFTVSRDNSKNTLYLQMNSLRAEDTAVYYCAREGSKKVALSRYYYYMDVWGQGTTVTVSS
VL: AELTQSPSSLSASVGDRVTITCRASQSISSYLNWYQQKPGKSPKLLIYAASSLQSGVPSRFSGSGSGTDFTLTISSLQPEDFATYYCQQSYSTPPAFGPGTKVDIKR
notes: Fab on M13 phage
B6: SH46 (Fab, V domains shown)
VH: VQLLEESGGGVVQPGRSLRLSCAASGFTFSSYGMHWVRQAPGRGLEWVALIWYDGGNKEYADSVKGRFSISRDNSKNTLYLQVNSLRADDTAVYYCARDQRAAAGIFYYSRMDVWGQGTTVTVSS
VL: AELTQSPSSLSASVGDRVTITCRASQYISSYLNWYQQKPGKAPNLLIYAASSLQSGVPSRFSGSGSGTDFTLTISSLQPEDFATYYCQQTYSSPSTFGPGTKVDIKR
notes: Fab on M13 phage
B7: SH47 (Fab, V domains shown)
VH: EVQLLESGGGVVQPGRSLRLSCAASGFSFSNYAMHWVRQAPGKGLEWVAVTSFDGSIKDYADSVKGRFTISRDNSKNTLYLQMNSLRDEDTAVYYCARERGMIVVVRRRNAFDIWGQGTMVTVSS
VL: AELTQSPSSLSASVGDRVTITCRASQSISNYLNWYQQKPGKAPNLLIYAASSLQSGVPSRFSGSGSGTDFTLTISSLQPEDFATYYCQQSYSYPRTFGQGTKVEIRR
notes: Fab on M13 phage
B8: SH48 (Fab, V domains shown)
VH: EVQLLESGGGVVQPGRSLRLSCAASGFSFSSYGMHWVRQAPGKGLEWVAVISYDGTNKYFADSVKGRFTISRDNSKKTLYLQMTSLRPEDTAVYFCANLRGEVTRRASVPLDIWGQGTMVTVSS
VL: AELTQSPSSLSASVGDRVTITCRASQYISSYLNWYQQKPGKAPNLLIYAASSLQSGVPSRFSGSGSGTDFTLTISSLQPEDFATYYCQQTYSSPSTFGPGTKVDIKR
notes: Fab on M13 phage
B9: SH37 (Fab, V domains shown)
VH: EVQLLESGGGVVQPGRSLRLSCEASKFTLYNYGMHWVRQAPGKGLEWVAFIWFDGSNKYYEDSVKGRFTVSRDNSKNTLYLQMNSLRAEDTAVYYCARELSKKVALSRYYYYMDVWGQGTTVTVSS
VL: AELQDPVVSVALGQTVKITCQGDSLRKYYASWYQQKPGQAPVLVFYARNSRPSGIPDRFSGSNSGTTASLTIAGARAEDEADYYCHSRDSNGHHRVFGGGTKLTVL
notes: Fab on M13 phage
B10: SH54 (Fab, V domains shown)
VH: EVQLLESGGGVVQPGRSLRLSCAASGFTFSRNGMHWVRQAPGKGLEWVAFIWFDGSNKYYADSVKGRFTISRDNSKNTLYLQMNSLRADDTAVYYCAREEALFRGLTRWSYGMDVWGQGTTVSVSS
VL: AELTQSPSSMSASVGDRVTITCRASQSIGTYLNWYQQKPGKAPKLLIYAASSLQSGVPSRFSGSGSGTDFTLTISSLQPEDFATYYCQQSYSTPWTFGQGTKVEIKR
notes: Fab on M13 phage
B11: SH55 (Fab, V domains shown)
VH: EVQLLESGGGVVQPGRSLRLSCVVSGFTFNNYGMHWVRQAPGKGLEWVAVIWFDGSNKYYADSVKGRFTISRDNSKNTLYLQMNSLRAEDTAVYYCARENQIKLWSRYLYYFDYWGQGTLVTVSS
VL: AELTQPPSASGTPGQRVTISCSGSSSNIGSKYVYWYQQLPGTAPKLLIYSNNQRPSGVPDRFSAFKSGTSASLAITGLQAEDEANYYCQSYDSGLSGWVFGGGTKLTVL
notes: Fab on M13 phage
B12: SH53 (Fab, V domains shown)
VH: EVQLLESGGGGVQPGRSLRLSCAASGFTFNSYAMYWVRQPPGKGLEWVAAIWYDGSNKEYADFVKGRFTISRDNSKNTLSLQMNSLRDEDTAVYYCAREANLLRGWSRYYYGMDVWGQGTTVTVSS
VL: AELQDPVVSVALGQTVRITCQGDGLRSYYASWYQQKPGQAPKLVMYGRNNRPSGIPGRFSGSSSGQTAALTITGTQAEDEADYYCQSRATSGNPVVFGGGTKLTVL
notes: Fab on M13 phage
B13: SH39 (Fab, V domains shown)
VH: VQLLEQSGGGVVQPGRSLRLSCAASGFTFSSYGMHWVRQAPGKGLEWVAVIWFDGSNKEYADSVKGRFTISRDNSKNTLYLQMNSLRAEDTAVYYCAREEVVRGVILWSRKFDYWGQGTLVTVSS
VL: AELTQSPSSLSASVGDRVTITCRASQTIGRYLNWYQQRPGKAPKLLVYAVSSLQSGAPSRFSGSGSGTHFTLTITSLQPEDFATYFCQQSYSSPFTFGQGTKVEIKR
notes: Fab on M13 phage
B14: SH41 (Fab, V domains shown)
VH: EVQLLESGGGVVQPGRSLRLSCAASGFTFSTYGMHWVRQAPGKGLEWVAVIWFDGSNKEYADSVKGRFTISRDNSKNTLYLQMNSLRAEDTAVYYCAREEVVRGVILWSRKFDYWGQGTLVTVSS
VL: AELTQSPSSLSASVGDRVTITCRASQNIRRSLNWYQHKPGRAPRLLIYAASTLQSGVPSRFRGSGSGTDFTLTINSLQPADFATYYCQQSSNTPWTFGHGTKVEIKR
notes: Fab on M13 phage
B15: SH49 (Fab, V domains shown)
VH: EVQLLESGGGVVQPGRSLRLACAASGFSFRSYGMHWVRQAPGRGLEWVAFTWFDGSNKYYVDSVKGRFTISRDNSKNTLYLEMNSLRVDDTAVYYCAREASMLRGISRYYYAMDVWGPGTTVTVSS
VL: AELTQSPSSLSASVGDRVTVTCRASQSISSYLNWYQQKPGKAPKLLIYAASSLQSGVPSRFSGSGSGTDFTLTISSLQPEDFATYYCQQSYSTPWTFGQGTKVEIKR
notes: Fab on M13 phage
B16: SH51 (Fab, V domains shown)
VH: EVQLLESGGGVVQPGRSLRLACAASGFSFRSYGMHWVRQAPGRGLEWVAFTWFDGSNKYYVDSVKGRFTISRDNSKNTLYLEMNSLRVDDTAVYYCAREASMLRGISRYYYAMDVWGPGTTVTVSS
VL: AELTQSPSFLSASVGDRVTITCRASQGIRSYLAWYQQKPGKAPKLLIYAASTLQSGVPSRFSGSGSGTEFTLTISSLQPEDFATYYCQQLNNYPPFTFGPGTKVDIKR
notes: Fab on M13 phage
B17: SH44 (Fab, V domains shown)
VH: EVQLLESGGGVAQPGRSLRLSCVASGFSLRSYGMHWVRQAPGKGLEWVADIWFDGSNKDYADSVKGRFTISRDNSKNTLYLQMNSLRAEDTAVYYCARDWRVRAFSSGWLSAFDIWGQGTMVTVSS
VL: AELTQSPSSLSASVGDRVIITCRASQTIPRFLNWYQQKPGKAPVLLIHSISSLQSGVPSRFSASGSGTEFTLTISSLQPEDFATYYCQQSYSNLSFGPGTTVDIRR
notes: Fab on M13 phage

These binders were tested against T1, human Rh(D) antigen on Rh(D)-positive red blood cells (human, UniProt Q02161 2-417) (assay: agglutination, anti-M13).
T1 construct: whole, on cells; also called wt; wild type Rh(D)
T1 sequence (looked up): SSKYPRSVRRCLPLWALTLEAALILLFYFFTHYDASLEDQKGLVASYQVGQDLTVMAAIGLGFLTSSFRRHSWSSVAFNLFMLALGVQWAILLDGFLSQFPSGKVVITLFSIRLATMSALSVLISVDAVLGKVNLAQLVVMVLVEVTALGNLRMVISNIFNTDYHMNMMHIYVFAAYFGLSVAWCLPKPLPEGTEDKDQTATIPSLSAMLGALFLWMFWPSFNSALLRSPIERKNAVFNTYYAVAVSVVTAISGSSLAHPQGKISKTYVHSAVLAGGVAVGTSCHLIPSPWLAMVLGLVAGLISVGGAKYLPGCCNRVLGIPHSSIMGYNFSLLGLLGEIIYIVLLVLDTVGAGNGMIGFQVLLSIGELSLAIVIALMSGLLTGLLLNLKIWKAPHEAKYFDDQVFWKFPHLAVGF
B1: binds.
B2: binds.
B3: binds.
B4: binds.

Target: T1, human Rh(D) antigen on Rh(D)-positive …
Assay: agglutination, anti-M13
Remark: another data set of the same source
Method: The binding of anti-Rh(D) Fab/phage or soluble Fab molecules to normal or partial Rh(D) antigens was assessed by indirect agglutination assays as described (Siegel et al., 1994, Blood 83:2334; Siegel et al., 1997, J. Immunol. Meth. 206: 73). […] Following a one-hour incubation at 37° C., the RBCs were washed 3 times with 2 ml of cold PBS to remove unbound antibody. The resulting RBC pellets were resuspended in 100 μl of a 10 μg/ml solution of sheep anti-M13 antibody (5 Prime-3 Prime, Boulder, Colo.) for Fab/phage experiments or goat anti-human κ or λ light chain antibody (Tago, Burlingame, Calif.) for $\gamma_1\kappa$ or $\gamma_1\lambda$ soluble Fab experiments, respectively. The RBC suspensions were transferred to the round-bottomed wells of a 96-well microplate and left undisturbed for 2 hours. Negative reactions show sharp ~2 millimeter diameter RBC spots whereas the RBCs in agglutinated wells form a thin carpet coating the entire floor of the well (Siegel et al., 1997, J. Immunol. Meth. 206:73). Agglutination titers for recombinant antibodies were determined by performing serial 2-fold dilutions in 1% BSA/PBS.
Fifty-six randomly chosen colonies were selected, and monoclonal Fab/phage preparations were separately produced from each of these individual colonies, using the methods described herein in Example 1. Rh(D) specificity was determined by indirect agglutination using anti-M13 antibody, as described herein in Examples 1 and 2.
B5: binds.
B6: binds.
B7: binds.
B8: binds.
B9: binds.
B10: binds.
B11: binds.
B12: binds.
B13: binds.
B14: binds.
B15: binds.
B16: binds.
B17: binds.
